Assay [1] has as its target T1, human FGFR1c and KLB (Homo sapiens, UniProt P11362+Q86Z14).
T1 construct: host or cells: CHO Flp-In cells
The assay is described as follows: In-Cell Western FGF21 receptor autophosphorylation (pFGFR ICW) in CHO cells. The assay is classed as cell-based. The note with it: CHO cells overexpressing human FGFR1c and KLB; 5 min stimulus; n = 59. The method, then: (§1) The cellular in vitro efficacy of mature human FGF21 (SEQ ID NO: 2) or FGF21 variants was measured using a specific and highly sensitive In-Cell Western (ICW) assay. The ICW assay is an immunocytochemical assay usually performed in microplate format. CHO Flp-In cells (Invitrogen, Darmstadt, Germany) stably expressing the human FGFR1c (=FGF receptor 1c isoform) together with human beta-Klotho (KLB) were used for an FGF21 receptor autophosphorylation assay using In-Cell Western (Aguilar H. N. et al. (2010) PLoS ONE 5(4): e9965). In order to determine the receptor autophosphorylation level or downstream activation of the MAP kinase ERK1/2, 2×10^4 cells/well were seeded into 96-well plates and grown for 48 h. Cells were serum starved with serum-free medium Ham's F-12 Nutrient Mix with GlutaMAX (Gibco, Darmstadt, Germany) for 3-4 h. The cells were subsequently treated with increasing concentrations of either mature human FGF21 (SEQ ID NO: 2) for 5 min at 37° C. After incubation, the medium was discarded, and the cells were fixed in 3.7% freshly prepared para-formaldehyde for 20 min. […] Subsequently, cells were washed again with PBS plus 0.1% Tween20, and infrared dye signals were quantified with an Odyssey imager (LICOR, Bad Homburg, Germany). Results were normalized by quantification of DNA with TO-PRO3 dye (Invitrogen, Karlsruhe, Germany). […]

Assay [2] concerns the target T1, human FGFR1c and KLB. The assay is described as follows: In-Cell Western ERK1/2 phosphorylation (pERK ICW) in CHO cells. The assay is classed as cell-based. The note with it: CHO cells overexpressing human FGFR1c and KLB; 5 min stimulus; n = 61. On the procedure: as §1

In patent US20240325499A1, “FGF21 COMPOUND / GLP-1R AGONIST COMBINATIONS WITH OPTIMIZED ACTIVITY RATIO” (SANOFI, priority 2018, published 2024) one finds EC50 data, which are given here for 1 molecule.

Usually EC50 stands for the concentration at which the effect is half-maximal. The low end stands for higher potency in that assay, the high end for lower potency in that assay.

B1: mature human wild-type FGF21, FGF21(His29-Ser209) (protein, listed as Homo sapiens)
chain: HPIPDSSPLLQFGGQVRQRYLYTDDAQQTEAHLEIREDGTVGGAADQSPESLLQLKALKPGVIQILGVKTSRFLCQRPDGALYGSLHFDPEACSFRELLLEDGYNVYQSEAHGLPLHLPGNKSPHRDPAPRGPARFLPLPGLPPAPPEPPGILAPQPPDVGSSDPLSMVGPSQGRSPSYAS
Turning to B1, the concentration for a half-maximal effect (EC50) was 4.8 ± 0.23 nM with human FGFR1c and KLB [1]; 0.18 ± 0.02 nM in the assay with human FGFR1c and KLB [2].
